From US20100150906A1 (AC IMMUNE S A, published 2010)
No end group written: not given here.

T1: peptide A20 of the second library (aa 12-20, F20 to alanine) (also: biotinylated, position not given here)
T1 peptide: VHHQKLVFA

T2: peptide A17 of the second library (aa 12-20, L17 to alanine) (also: biotinylated, position not given here)
T2 peptide: VHHQKAVFF

T3: peptide 4 (also: biotinylated, site not given here)
T3 construct: also called 4 on the axis Peptide number; first peptide library
T3 peptide: FRHDSGYEV

T4: peptide 7 (also: biotinylated, site not given here)
T4 construct: also called 7 on the axis Peptide number; first peptide library
T4 peptide: DSGYEVHHQ

T5: peptide 8 (also: biotinylated, site not given here)
T5 construct: also called 8 on the axis Peptide number; first peptide library
T5 peptide: SGYEVHHQK

T6: peptide 22 (also: biotinylated, site not given here)
T6 construct: also called 22 on the axis Peptide number; first peptide library
T6 peptide: EDVGSNKGA

T7: peptide 5 (also: biotinylated, site not given here)
T7 construct: also called 5 on the axis Peptide number; first peptide library
T7 peptide: RHDSGYEVH

T8: peptide 6 (also: biotinylated, site not given here)
T8 construct: also called 6 on the axis Peptide number; first peptide library
T8 peptide: HDSGYEVHH

T9: peptide 21 (also: biotinylated, site not given here)
T9 construct: also called 21 on the axis Peptide number; first peptide library
T9 peptide: AEDVGSNKG

T10: peptide 11 (also: biotinylated, site not given here)
T10 construct: also called 11 on the axis Peptide number; first peptide library
T10 peptide: EVHHQKLVF

T11: peptide 23 (also: biotinylated, site not given here)
T11 construct: also called 23 on the axis Peptide number; first peptide library
T11 peptide: DVGSNKGAI

T12: peptide 2 (also: biotinylated, site not given here)
T12 construct: also called 2 on the axis Peptide number; first peptide library
T12 peptide: AEFRHDSGY

T13: peptide 10 (also: biotinylated, site not given here)
T13 construct: also called 10 on the axis Peptide number; first peptide library
T13 peptide: YEVHHQKLV

T14: peptide 24 (also: biotinylated, site not given here)
T14 construct: also called 24 on the axis Peptide number; first peptide library
T14 peptide: VGSNKGAII

B1: mouse monoclonal antibody ACI-01-Ab7C2 (antibody, V domains shown)
VH: EVQLVESGGGLVQPGGSLKLSCAASGFTFSSYGMSWVRQTPDKRLELVASINSNGGSTYYPDSVKGRFTISRDNAKNTLYLQMSSLKSEDTAMYYCASGDYWGQGSTLTVSS
VL: DVVMTQTPLSLPVSLGDQASISCRSSQSLVYSNGDTYLHWYLQKPGQSPKLLIYKVSNRFSGVPDRFSGSGSGTDFTLKISRVEAEDLGVYFCSQSTHVPWTFGGGTKLEIK
notes: also called mC2; mACI-01-Ab7 C2
B2: humanized anti-human amyloid beta monoclonal antibody hC2 (antibody, human IgG4 S228P, kappa, V domains shown)
VH: EVQLVESGGGLVQPGGSLRLSCAASGFTFSSYGMSWVRQAPGKGLELVASINSNGGSTYYPDSVKGRFTISRDNAKNSLYLQMNSLRAEDTAVYYCASGDYWGQGTTVTVSS
VL: DIVMTQSPLSLPVTPGEPASISCRSSQSLVYSNGDTYLHWYLQKPGQSPQLLIYKVSNRFSGVPDRFSGSGSGTDFTLKISRVEAEDVGVYYCSQSTHVPWTFGQGTKVEIKR
notes: also called humanized antibody C2; humanized C2

What was measured:
[1] = target: T1, peptide A20 of the second library (aa …); test: ELISA on biotinylated peptides on streptavidin plates
Description: (§1) Epitope mapping of the monoclonal antibody mACI-01-Ab7 C2 was performed by ELISA using three different peptide libraries. One library comprises a total of 33 biotinylated peptides covering the complete amino acid (aa) sequence of Aβ1-42 (produced by Mimotopes and purchased from ANAWA Trading SA), the second library contains biotinylated peptides using peptide 12 (aa12-20 of Aβ) from the first peptide library and substituting each amino acid in the sequence by an alanine (see […] below), and the third library contains biotinylated peptides 13, 14, or 15 (aa 13-21, 14-22 or 15-23 of Aβ) and substituting in each case the last amino acids to an alanine or to a glycine for aa 21 which is already an alanine (see table 5 below). A biotinylated complete Aβ1-42 peptide was used as positive control (Bachem). Epitope mapping was done according to the manufacturer's (Mimotopes) instructions. Briefly, Streptavidin coated plates (NUNC) were blocked with 0.1% BSA in PBS overnight at 4° C. After washing with PBS-0.05% Tween 20, plates were coated for 1 hour at RT with the different peptides from the library, diluted in 0.1% BSA, 0.1% Sodium Azide in PBS to a final concentration of 10 μM. After washing, plates were incubated for 1 hour at RT with the mACI-01-Ab7 C2 antibody or an isotype control mouse IgG2b antibody, diluted to 10 μg/ml in 2% BSA, 0.1% Sodium Azide in PBS. Plates were washed again and incubated with alkaline phosphatase conjugated goat anti mouse IgG for 1 h at RT.

[2] = target: peptide A16 of the second library (aa 12-20, K16 to alanine) (biotinylated (position not given)); test: as above
Description: as §1

[3] = target: peptide A19 of the second library (aa 12-20, F19 to alanine) (biotinylated (position not given)); test: as above
Description: as §1

[4] = target: T2, peptide A17 of the second library (aa …); test: as above
Description: as §1

[5] = target: T3, peptide 4; test: ELISA, biotinylated peptide on streptavidin plate, O.D. 405 nm [upper chart, Figure 1]
Source text: (§2) One library comprised a total of 33 biotinylated peptides covering the complete amino acid (aa) sequence of Aβ1-42 (produced by Mimotopes and purchased from ANAWA Trading SA), the second library contains biotinylated peptides using peptide 12 (aa12-20 of Aβ) from the first peptide library and substituting each aa in the sequence by an alanine (see table 8 below), and the third library contains biotinylated peptides 13, 14, or 15 (aa 13-21, 14-22 or 15-23 of Aβ) and substituting in each case the last amino acids to an alanine or to a glycine for aa 21 which is already an alanine (see table 9 below). A biotinylated complete Aβ1-42 peptide was used as positive control (Bachem). Epitope mapping was done according to the manufacturer's (Mimotopes) instructions. Briefly, Streptavidin coated plates (NUNC) were blocked with 0.1% BSA in PBS overnight at 4° C. After washing with PBS-0.05% Tween 20, plates were coated for 1 hour at RT with the different peptides from the library, diluted in 0.1% BSA, 0.1% Sodium Azide in PBS to a final concentration of 10 μM. […] Plates were washed again and incubated with alkaline phosphatase conjugated goat anti human IgG for 1 h at RT.

[6] = target: T4, peptide 7; test: as above
Source text: as §2

[7] = target: T5, peptide 8; test: as above
Source text: as §2

[8] = target: T6, peptide 22; test: as above
Source text: as §2

[9] = target: T7, peptide 5; test: as above
Source text: as §2

[10] = target: T8, peptide 6; test: as above
Source text: as §2

[11] = target: T9, peptide 21; test: as above
Source text: as §2

[12] = target: T10, peptide 11; test: as above
Source text: as §2

[13] = target: T11, peptide 23; test: as above
Source text: as §2

[14] = target: T12, peptide 2; test: as above
Source text: as §2

[15] = target: T13, peptide 10; test: as above
Source text: as §2

[16] = target: T14, peptide 24; test: as above
Source text: as §2

Row | Binder | binding result [1] | binding result [2] | binding result [3] | binding result [4] | binding result [5] | binding result [6] | binding result [7] | binding result [8] | binding result [9] | binding result [10] | binding result [11] | binding result [12] | binding result [13] | binding result [14] | binding result [15] | binding result [16]
1 | B1 | no binding (tested: 10 µg/ml) | no binding (tested: 10 µg/ml) | no binding (tested: 10 µg/ml) | no binding (tested: 10 µg/ml) |  |  |  |  |  |  |  |  |  |  |  | 
2 | B2 |  |  |  |  | no binding (tested: 200 ng/ml (single concentration)) | no binding (tested: 200 ng/ml (single concentration)) | no binding (tested: 200 ng/ml (single concentration)) | no binding (tested: 200 ng/ml (single concentration)) | no binding (tested: 200 ng/ml (single concentration)) | no binding (tested: 200 ng/ml (single concentration)) | no binding (tested: 200 ng/ml (single concentration)) | no binding (tested: 200 ng/ml (single concentration)) | no binding (tested: 200 ng/ml (single concentration)) | no binding (tested: 200 ng/ml (single concentration)) | no binding (tested: 200 ng/ml (single concentration)) | no binding (tested: 200 ng/ml (single concentration))
